{"source": "patent US20220056111A1", "about": "(YUROGEN BIOSYSTEMS, published 2022)", "binders": {"B1": {"name": "rabbit monoclonal antibody 1H1 against the SARS-CoV-2 S1 (antibody, V domains shown)", "VH": "QSLEESGGDLVKPGASLTLTCTASGFSFSSGYDMCWVRQAPGKGLEWIACIGTGSSGNIYYASWAKGRFTISKTSSTTVTLQMTSLTAADTATYFCARDDADYAGPDYFNLWGPGTLVTVSS", "VL": "DIVMTQTPASVSEPVGGTVTIKCQASESISNWLAWYQQKPGQPPKLLIYAAFTLASGVPSRFKGSGSGTQFTLTINGVECADAATYYCQQTYSSRDVDNVFGGGTEVVVKG"}, "B2": {"name": "rabbit monoclonal antibody 1A3 against the SARS-CoV-2 S1 (antibody, V domains shown)", "VH": "QSLEESGGRLVTPGTPLTLTCTVSGFSFSSYHMGWVRQAPGEGLEWIGTLIGIAGNTYYASWAKGRFSISKTSTTVDLKMTSPTTEDTATYWCARIVTATFEFWGPGTLVTVSS", "VL": "AQVLTQTPSPVSAAVGGTVTISCQASQSVNMNLLSWFQQKPGQPPKLLIYQASNLASGVSARFKGSGSGTQFTLTINEIQCDDAATYYCQGDMGGWMFPFGGGTEVVVTG"}, "B3": {"name": "rabbit monoclonal antibody 1D2 against the SARS-CoV-2 S1 (antibody, V domains shown)", "VH": "QSVEESGGRLVTPGTSLTLTCTVSGIDIETYWMSWVRQAPGKGLEWIAIITSHDHSGYANWAEGRFTISKTSTTVTLTITDLQPSDTGTYFCAKDVGHSTYDLWGPGTLVTVSS", "VL": "AAVLTQTPSPVSAAVGGTVTISCQSSESVLSNNRLSWYQQKPGQPPKLLIYAASTLASGVPSRFKGRGSGTQFTLTISDVQCDDAAMYVCAGAFSGSSDTRAFGGGTEVVVKG"}, "B4": {"name": "rabbit monoclonal antibody 7G5 against the SARS-CoV-2 S1 (antibody, V domains shown)", "VH": "QEQLEESGGDLVKPGASLTLTCTASGFSFSSAYYMCWVRQAPGKGLEWIACIGVDSGGNSYYASWAKGRFTISTTSSTTVTLQMTSLTAADKATYFCTRSFSLWGPGTLVTISS", "VL": "RKWLTQTASSVSAAVGGTVTISCQASQSVYNNDNLAWFQQRPGQPPKLLIYLASNLASGVPPRFSGSGSGTQFTLTISDVQCDDAATYYCLGGYDCSNADCHAFGGGTEVVVKG"}, "B5": {"name": "rabbit monoclonal antibody 9A5 against the SARS-CoV-2 S1 (antibody, V domains shown)", "VH": "QSVEESGGRLVTPGTPLTLTCTVSGFSLSAYQMIWVRQTPGKGLEYIGIMHTGTSAYYANWAKGRFTISKTSSTTVDLKMTSPTTEDTATYFCGRNLNEGFTGAYPFNLWGPGTLVAVSS", "VL": "DVVMTQTPASVEAAVGGTVTIKCQASQSIGSNLAWYQKKPGQPPKLLIYQASNLASGVPSRFKGSGSGTQFTLTISDLECADAATYYCQMNYYISSSYTYTFGGGTEVVVKG"}}, "data": [{"biological_target": "T1, HcoV-OC43 S protein (HcoV-OC43, UniProt P36334 14-1297)", "T1 sequence": "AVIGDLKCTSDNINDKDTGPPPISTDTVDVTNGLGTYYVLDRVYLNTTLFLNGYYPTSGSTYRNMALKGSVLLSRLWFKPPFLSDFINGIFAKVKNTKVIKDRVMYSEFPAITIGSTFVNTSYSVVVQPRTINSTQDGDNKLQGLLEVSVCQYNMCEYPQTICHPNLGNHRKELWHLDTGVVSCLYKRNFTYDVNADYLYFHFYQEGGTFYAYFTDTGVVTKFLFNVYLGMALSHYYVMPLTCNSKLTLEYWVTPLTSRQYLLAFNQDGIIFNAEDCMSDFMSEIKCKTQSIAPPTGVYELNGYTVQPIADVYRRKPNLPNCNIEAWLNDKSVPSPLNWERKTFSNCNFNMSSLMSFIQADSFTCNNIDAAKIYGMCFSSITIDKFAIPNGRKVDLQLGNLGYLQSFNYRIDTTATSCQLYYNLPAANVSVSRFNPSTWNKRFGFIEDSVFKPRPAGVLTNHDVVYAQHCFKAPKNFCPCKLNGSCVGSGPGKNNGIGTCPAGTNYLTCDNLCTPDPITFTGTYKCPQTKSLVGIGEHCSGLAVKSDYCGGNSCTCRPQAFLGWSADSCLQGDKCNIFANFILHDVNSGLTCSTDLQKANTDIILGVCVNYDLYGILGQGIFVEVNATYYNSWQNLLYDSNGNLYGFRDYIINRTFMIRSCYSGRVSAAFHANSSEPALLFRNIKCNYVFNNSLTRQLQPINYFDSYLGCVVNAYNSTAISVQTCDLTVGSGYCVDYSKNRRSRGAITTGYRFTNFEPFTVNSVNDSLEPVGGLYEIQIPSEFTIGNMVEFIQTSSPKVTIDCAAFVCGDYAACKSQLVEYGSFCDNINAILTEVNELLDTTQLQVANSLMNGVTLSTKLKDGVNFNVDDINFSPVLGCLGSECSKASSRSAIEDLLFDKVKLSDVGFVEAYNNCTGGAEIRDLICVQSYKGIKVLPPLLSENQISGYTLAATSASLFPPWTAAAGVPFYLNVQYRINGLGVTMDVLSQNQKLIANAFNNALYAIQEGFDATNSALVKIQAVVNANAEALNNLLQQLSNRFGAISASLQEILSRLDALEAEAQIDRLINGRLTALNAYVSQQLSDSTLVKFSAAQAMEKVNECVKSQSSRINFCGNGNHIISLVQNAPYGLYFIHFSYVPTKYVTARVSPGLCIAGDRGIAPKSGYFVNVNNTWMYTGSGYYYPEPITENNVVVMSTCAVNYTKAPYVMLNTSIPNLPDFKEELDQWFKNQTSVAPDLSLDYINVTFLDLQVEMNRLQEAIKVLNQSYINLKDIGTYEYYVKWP", "test": "direct ELISA, OD450", "values": [{"binder": "B1", "binding result": "no binding"}, {"binder": "B2", "binding result": "no binding"}, {"binder": "B3", "binding result": "no binding"}, {"binder": "B4", "binding result": "no binding"}, {"binder": "B5", "binding result": "no binding"}]}, {"biological_target": "T2, HcoV-229E S protein (HcoV-229E, UniProt P15423 16-1115)", "T2 sequence": "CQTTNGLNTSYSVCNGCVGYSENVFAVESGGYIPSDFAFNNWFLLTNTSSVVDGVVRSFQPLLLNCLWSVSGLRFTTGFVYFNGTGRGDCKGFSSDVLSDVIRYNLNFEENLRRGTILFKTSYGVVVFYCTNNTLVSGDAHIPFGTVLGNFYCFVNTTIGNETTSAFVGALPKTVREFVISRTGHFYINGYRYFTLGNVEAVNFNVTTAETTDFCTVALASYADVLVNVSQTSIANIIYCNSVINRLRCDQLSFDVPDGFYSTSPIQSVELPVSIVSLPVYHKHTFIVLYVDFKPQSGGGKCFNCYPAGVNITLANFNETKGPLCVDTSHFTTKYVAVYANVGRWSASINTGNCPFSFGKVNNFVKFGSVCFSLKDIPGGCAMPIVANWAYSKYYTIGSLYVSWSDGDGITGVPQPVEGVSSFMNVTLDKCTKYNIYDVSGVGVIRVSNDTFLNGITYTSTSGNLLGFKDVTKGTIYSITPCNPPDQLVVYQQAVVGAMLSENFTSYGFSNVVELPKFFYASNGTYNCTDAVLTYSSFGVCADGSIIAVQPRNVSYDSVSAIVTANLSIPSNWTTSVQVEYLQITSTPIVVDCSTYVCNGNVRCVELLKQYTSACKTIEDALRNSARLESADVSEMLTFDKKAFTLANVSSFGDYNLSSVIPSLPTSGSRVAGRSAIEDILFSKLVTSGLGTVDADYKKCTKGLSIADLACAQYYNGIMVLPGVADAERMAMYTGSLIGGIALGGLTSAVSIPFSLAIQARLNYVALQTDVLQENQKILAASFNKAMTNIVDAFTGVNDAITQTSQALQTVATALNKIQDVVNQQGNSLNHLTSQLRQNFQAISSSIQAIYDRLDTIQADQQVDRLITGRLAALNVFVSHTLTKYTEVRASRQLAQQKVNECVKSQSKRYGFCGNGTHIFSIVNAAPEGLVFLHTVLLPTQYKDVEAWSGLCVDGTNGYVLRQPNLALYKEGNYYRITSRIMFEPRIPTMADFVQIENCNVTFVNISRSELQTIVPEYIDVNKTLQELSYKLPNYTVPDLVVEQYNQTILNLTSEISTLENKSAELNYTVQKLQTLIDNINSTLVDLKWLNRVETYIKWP", "test": "direct ELISA, OD450", "values": [{"binder": "B1", "binding result": "no binding"}, {"binder": "B2", "binding result": "no binding"}, {"binder": "B3", "binding result": "no binding"}, {"binder": "B4", "binding result": "no binding"}, {"binder": "B5", "binding result": "no binding"}]}, {"biological_target": "T3, SARS-CoV-2 Spike S1 protein (SARS-CoV-2, UniProt P0DTC2 16-685)", "test": "not given", "units": {"Kd": "nM", "koff": "s⁻¹", "kon": "M⁻¹ s⁻¹"}, "values": [{"binder": "B1", "Kd": 2.06, "koff": 0.000273, "kon": 133000}, {"binder": "B2", "Kd": 0.537, "koff": "9.34e-05", "kon": 174000}, {"binder": "B3", "Kd": 3.55, "koff": 0.000259, "kon": 72900}, {"binder": "B4", "Kd": 2.14, "koff": 0.000261, "kon": 122000}, {"binder": "B5", "Kd": 0.87, "koff": 0.000115, "kon": 132000}]}, {"biological_target": "T3, SARS-CoV-2 Spike S1 protein", "test": "not given", "remark": "another data set of the same source", "units": {"EC50 (read off the curve)": "ng/mL"}, "values": [{"binder": "B1", "EC50 (read off the curve)": "~40"}]}, {"biological_target": "T4, RBD (receptor binding domain) of the SARS-CoV-2 S1 (SARS-CoV-2, UniProt P0DTC2 319-541)", "T4 construct": "domain: RBD; also called RBD domain protein", "test": "direct antigen ELISA, RBD coated, antibody titrated, anti-rabbit IgG-HRP", "values": [{"binder": "B2", "binding result": "no binding (tested: 1000 ng/ml)"}, {"binder": "B3", "binding result": "no binding (tested: 1000 ng/ml)"}]}]}
